Reference: the supplement of paper PMC12764529
± gives the half width of the 95% confidence interval.

Legend:
[1] = folding stability dG unfold from trypsin proteolysis; higher = more stable
Description: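 Folding stability of de novo designed mini-proteins (<80 aa, no Cys; designed by TrROS, TrMRF, ProteinMPNN and the joint model) was measured by cDNA display proteolysis with trypsin and chymotrypsin. Each protease was used at 11 concentrations in a threefold dilution series plus a no-protease condition. K50 was inferred by Bayesian fitting of sequencing counts, and dG unfold was derived against a sequence-predicted unfolded-state K50 (Tsuboyama et al. method). Sequences shown include variable-length N-terminal GS-type padding (SAGGSAGG...) inside a display construct carrying a PA tag. Rows were kept only if the AF2 dimer inter-PAE was >15, to exclude likely homo-oligomers.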

[2] = folding stability dG unfold (combined trypsin and chymotrypsin); higher = more stable
Summary of the method: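 K50 was inferred by Bayesian fitting of sequencing counts obtained after protease digestion of designed mini-proteins. Unfolding free energy was derived by comparison with a sequence-predicted unfolded-state K50 and a shared folded-state K50, for each protease or both combined. The mini-proteins were under 80 residues, had no cysteine, were carried in a PA-tagged cDNA display construct, and were kept only if AlphaFold2 dimer inter-PAE exceeded 15.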

| Sequence | folding stability dG unfold [1] | folding stability dG unfold [2] |
| --- | --- | --- |
| IKIRFPDGHEITEIDDLSFSGNGYIEINVKVRNPENPQTQPMPIYIPVPPVPPPPVKIERDPGNGKWKYEDS [r1_411_TrROS] | 0.799 ± 0.07 kcal/mol | -0.179 ± 0.33 kcal/mol |
| SAGGSAGGSALVRIEFPNGREIEIPNNMPYEQAKDVAVELAEEHGKNGRPFKVKIEEIKPPGSAGGSAGGSA [r18_213_TrROS] | 0.439 ± 0.096 kcal/mol | -0.511 ± 0.56 kcal/mol |
| SAGGSAGGSAGNMKEVEFTIPGAPPDELADNLPPGIKDVEIERNPEARENGGYSIKAYVDSAGGSAGGSAGG [r11_1002_TrROS] | -0.0749 ± 0.17 kcal/mol | < -1 kcal/mol |
| SAGGSAGGSAGMILTEEVTVAVPTLSTADGTRHTTTVPELVVVELKLPPVPPEAVEKLLASAGGSAGGSAGG [r11_318_JUSTAS] | -0.0441 ± 0.019 kcal/mol | -0.887 ± 0.16 kcal/mol |
| SAMEVTVTPLPDGTTRVTLPDGVEITHPAPGTGEPVLVEVTEVPGTGTYRITIRSPAGGEELRELLVPVSAG [r14_975_JUSTAS] | 0.986 ± 0.03 kcal/mol | 0.443 ± 0.091 kcal/mol |
| SAGGSAGGSIAPDEPLVLEVEVEEVVPGVGEVLLPEWIAEEFPDAVIEVETDGTPVKVTIYRPSAGGSAGGS [r12_900_TrMRF] | 0.743 ± 0.045 kcal/mol | 0.0203 ± 0.076 kcal/mol |
| SAGGSAGGSAGKIKAYAEKDVPAEIVAKAIEEEIREAFPDNPEEIKGIEVEPDGFLSETISAGGSAGGSAGG [r17_43_TrMRF] | -0.636 ± 0.15 kcal/mol | < -1 kcal/mol |
| SAGGSAGGSYSKNGQPPPTREIEIIILVEDPEEAENKADELSEMLGMPIKVEIIPEEDAKKMISAGGSAGGS [r12_766_TrROS] | 0.0437 ± 0.24 kcal/mol | 0.27 ± 0.86 kcal/mol |
| SAGGSAGGSAGPKWKQITIPMEPGQSVNEIADEIKDELGPGKRVHVSMHENGWMTIYVRKSAGGSAGGSAGG [r17_20_TrROS] | -0.484 ± 0.23 kcal/mol | < -1 kcal/mol |
| SAGGSLVTELIENNPEFQALLESGTTLKVTFPGGLSGEIEVKNKSPEEIEKAILARNPGPVEIEITGSAGGS [r16_655_JUSTAS] | 0.384 ± 0.11 kcal/mol | -0.192 ± 0.2 kcal/mol |
| SAGGSAGGSTIREILDALPPGREIDVERHPNNGHYEISIQNPNGPNPTFQIDDPVTKEIAEWISAGGSAGGS [r12_174_TrROS] | 0.65 ± 0.031 kcal/mol | -0.0634 ± 0.11 kcal/mol |
| SAGGSAMKVKSIHWQRHGDRPMVRIKIQNPDGKKRERNIPMDDPEKFKKEAKELAKEGKIKEIEPYSAGGSA [r15_575_TrROS] | -0.42 ± 0.81 kcal/mol | < -1 kcal/mol |
| SAGGSAGGSGMEKKTITITIPVPPDRDVTEEEIKETLKPLGYEEVDIEEIKPAGNSYTVTAVISAGGSAGGS [r20_79_JUSTAS] | 0.212 ± 0.13 kcal/mol | -0.427 ± 0.52 kcal/mol |
| SMPISAEELAELFPGVVEIKPEPDSTVITAKDPNGTNPVFTLSPAGTVTVTTYTPGSGTTTTTTIPTALLSA [r9_427_JUSTAS] | 0.681 ± 0.025 kcal/mol | 0.159 ± 0.071 kcal/mol |
| SAGGKVREIDFPMDPGELRDAIDELKREGYMVMIEMPNGQERTIDPNLEDLPPGMPFEIYVMPPKDGSAGGS [r16_31_TrROS] | -0.212 ± 0.33 kcal/mol | < -1 kcal/mol |
| SAITIMIPPNQTLEEIADELGFPGIKDVKHEPFEPGYYPATFEFPGDPDREIEIMFNPEPDWMMVEVEDSAG [r14_713_TrROS] | 0.809 ± 0.054 kcal/mol | 0.0271 ± 0.13 kcal/mol |
| SAGGSAGGSAGGKGWPTVEIPMPENGKPTPDSIEEIAEKFNMPNVEVEQSDDWHKIDVDSAGGSAGGSAGGS [r10_642_TrROS] | 0.92 ± 0.047 kcal/mol | -0.295 ± 0.32 kcal/mol |
| SSFMEQARNMAEELLQKKGLPPKPGEKVEIPIPYPNGMQIRITINPEEKKIDVEFYNDNQPVEHTFKIKKSA [r9_426_TrROS] | 0.267 ± 0.33 kcal/mol | -0.821 ± 0.76 kcal/mol |
| SAGGSAGGSAEVEIKVRPDDPIPPNLPIVLPDGKERDARVEAVLDPEDGTPVFKVYFDPRSDSAGGSAGGSA [r18_476_TrMRF] | 0.771 ± 0.048 kcal/mol | 0.0528 ± 0.29 kcal/mol |
| SAGGAMPKTITVTDPTSSREEAEALLASPERLEAIAEEIKPEFPGVDLTVTVSSDPATGTLTITIVSSAGGS [r16_320_JUSTAS] | 0.289 ± 0.072 kcal/mol | < -1 kcal/mol |
| SAGGSAGGSAGGMITKVTVTYLPGGEVSLTITDENGTPSEKTLSLAELKKYPDIPLELDPSAGGSAGGSAGG [r7_238_JUSTAS] | 0.174 ± 0.05 kcal/mol | -0.374 ± 0.088 kcal/mol |
| SMSPSETETTTYTRTIPFPKSNPEQAKAEAEKEVRAELEAKGLKIDIPITIEWENDTVTVTIPISVTPPLSA [r9_889_JUSTAS] | 0.594 ± 0.13 kcal/mol | -0.144 ± 0.29 kcal/mol |
| SAGGSAGGSAGMEIEVEVDPSTNTVKLTKKIGGKWVEATVTRTPGTGTITLPDGSTLKLTSAGGSAGGSAGG [r11_395_JUSTAS] | -0.709 ± 0.47 kcal/mol | < -1 kcal/mol |
| SAGGGMTLTQVSSHQSPNGGVPTTLVTETLFYPETGTAVVLTKVRLPETGEVTTVASTVLPIPPPLLSAGGS [r8_384_JUSTAS] | -0.0612 ± 0.066 kcal/mol | -0.726 ± 0.31 kcal/mol |

| Sequence | folding stability dG unfold [1] | folding stability dG unfold [2] |
| --- | --- | --- |
| SAGGSAGGSMTVKKIEIKPPPGGTDLATITTEKVDPSTGKPSLSTSTVTVPKNNPEAIEKFLSSAGGSAGGS [r12_691_JUSTAS] | -0.257 ± 0.18 kcal/mol | < -1 kcal/mol |
| SAGGSAPPASAPGVVEEVEAEVPVDVPEVARLTGRPPRPGERYRVRVVRRVYPDGRVETDVYIEPGSAGGSA [r15_91_TrMRF] | 0.328 ± 0.064 kcal/mol | -0.252 ± 0.14 kcal/mol |
| SAGGSAGGSIKVPKNSKVTVLYEKGGKKIEVSGIVDPKTGKILETDSLENLPDAKIVEIKVEDSAGGSAGGS [r12_6_TrMRF] | -0.742 ± 0.15 kcal/mol | < -1 kcal/mol |
| SAGGSAGGSAGMEIPEDWTVVEESEVPDERLVTVHNPKTGELYVVTQPPATGEETVERYLSAGGSAGGSAGG [r11_896_JUSTAS] | 0.0248 ± 0.2 kcal/mol | < -1 kcal/mol |
| SAGGSAGGSAGGSMVLYERVPASELPPGKGETLLIREVTVEKLPGNRIILNEGVKVIPPSAGGSAGGSAGGS [r4_444_JUSTAS] | -0.186 ± 0.15 kcal/mol | -0.831 ± 0.24 kcal/mol |
| SMSEELKKEIEAFLKEKGASIDFKTDPSTGKITITVTIPGKGTTTTITLTFPPDNPEEIKEKIKELIEKGSA [r9_42_JUSTAS] | 4.88 ± 0.6 kcal/mol | > 6 kcal/mol |
| SAGGSAGGSAGGKPIYILAEHPSNGKVVLLPVDSPEKAIEFAKALADVPDFKIAHVDAFGSAGGSAGGSAGG [r11_951_TrMRF] | 0.341 ± 0.052 kcal/mol | -0.287 ± 0.22 kcal/mol |
| SAGGSAGGEYKVYPVKGDLKEFFDEAYKENPGGVRIIDPDTDEVLDFPPDLSLDEFPGTFVVLGSAGGSAGG [r6_857_TrMRF] | -0.238 ± 0.13 kcal/mol | < -1 kcal/mol |
| SAGGSAGGSGKWMTAKELLKEFKPGKTIMIRMPPGTEIPPNIKPKGTFPGNGWMMIKIPPNDISAGGSAGGS [r12_356_TrROS] | -0.2 ± 0.45 kcal/mol | -0.274 ± 0.42 kcal/mol |
| SAGGSAMKVATLKVGGVDHTVEITPLPDGSYPVTTTAEEGGETTTTVVPKSEVKKLEDLPPEYRLLSAGGSA [r15_629_JUSTAS] | -0.414 ± 0.49 kcal/mol | < -1 kcal/mol |
| SLEIAKELGFPIKRFEPTEMDPDNGRQKWEAYIPMPNRTVRVDIDIRYEPDPNGKRQPKIQIDSIEFMPPSA [r9_613_TrROS] | 0.392 ± 0.12 kcal/mol | -0.242 ± 0.23 kcal/mol |
| SAGMVVKVTVITEDEKPIEVYLPVKDPEKYPPEKVEEAAKEIAKKLEEEGIPVKKVSVEPIAPKPGLLSAGG [r19_334_TrMRF] | 0.544 ± 0.087 kcal/mol | 0.0993 ± 0.4 kcal/mol |
| MKKTIPFPPSHPDLSPEEVAERLRERFLSPEESITVTTDPATGTTTVTATRGNVTTVATLSPAGTVTVTGAS [r1_131_JUSTAS] | -0.0831 ± 0.14 kcal/mol | < -1 kcal/mol |
| SAGGSAGGSAGGSEPWYVRIQIPDGNQIMFPPGSEAKIEIPKEEKDIRITEVIPADDIKSAGGSAGGSAGGS [r4_122_TrROS] | 0.0224 ± 0.13 kcal/mol | < -1 kcal/mol |
| SAGGSAMDAEQIEEKIKEAMQDHGHEVEVEVQRDPNNTVVIQVESGPGMDKDRIQEALQEKFGVKISAGGSA [r15_807_TrROS] | -0.793 ± 0.1 kcal/mol | < -1 kcal/mol |
| SAGGSAGGSAGTVTVDPEKGVVYVPLPEPISPEEVIEKRKEPELDVKILSVGENVAVILVSAGGSAGGSAGG [r17_323_JUSTAS] | 0.493 ± 0.027 kcal/mol | -0.218 ± 0.11 kcal/mol |
| SAGGSASPEELAERVAKEIEEKYPVEVTEIRVEEVSEDEVVLSMTYRKPLPGGETEVENRTVTLPQSAGGSA [r15_276_JUSTAS] | 0.162 ± 0.26 kcal/mol | -0.404 ± 0.46 kcal/mol |
| SAGGSAGGSAGGVPEEEIRERVEAAGLTAPDAEVVYETPENITVRVTVPPTGLVFERLESAGGSAGGSAGGS [r10_604_JUSTAS] | 0.0893 ± 0.048 kcal/mol | -0.367 ± 0.1 kcal/mol |
| SAGGSAGGSAGPPTSILEVKPGGEVTIKEGGTPVTVPSSVPYINLPEGGSAGSVEVPPELSAGGSAGGSAGG [r11_647_JUSTAS] | 0.394 ± 0.042 kcal/mol | -0.314 ± 0.31 kcal/mol |
| SAGGELREKIEEAVEEAAKAGKPVVKTSEIEARLGRPLTPELLEYVREKGIIERDPKGSITITLPEDKSAGG [r13_188_JUSTAS] | -0.895 ± 0.91 kcal/mol | < -1 kcal/mol |
| SAGMKKEKPKETVTITLKNGKKIEIVKTDDSIKIFITDKNGKKRELTVKGLSLEEILKKLEELGFEVEPSAG [r5_613_TrROS_Hall] | 0.776 ± 0.082 kcal/mol | 0.353 ± 0.2 kcal/mol |
| SAGGSAGGSAGNVEEIADQLKPNGYKISTVEPTDDQVEVEIYNPESKEPRKFRIPPNQPISAGGSAGGSAGG [r11_428_TrROS] | -0.414 ± 0.24 kcal/mol | < -1 kcal/mol |
| SAGGSAGGSDWFPIRVEDIEYERDPADGRDSVTIEAQFPGKPHTFTIPPNAPIKPGDELWIPFSAGGSAGGS [r20_49_TrROS] | -1.9 ± 0.8 kcal/mol | < -1 kcal/mol |
